Measurements: ChEMBL document CHEMBL2074521, “Partial purification and reconstitution of the human multidrug-resistance pump: characterization of the drug-stimulatable ATP hydrolysis” (Proc Natl Acad Sci U S A, 1992)

Test system: COc1cc2c(c(OC)c1OC)-c1ccc(OC)c(=O)cc1[C@@H](NC(C)=O)CC2
Experiment: TP_TRANSPORTER: ATP hydrolysis in reconstituted proteoliposomes
Type: functional, subcellular

ATP-dependent translocase ABCB1 (Homo sapiens)
Km: 45 µM
